Measured values: patent US11906524B2, “Urea biosensors and uses thereof” (Duke University, priority 2015, dated 2024)
Residue numbers refer to the chain shown, from its start. In names and notes the source's numbering stands. Where two headings read alike, the source gives them in different places.

B1: ctUBP6 T96C: ctUBP6 96C cysteine mutant (SEQ ID NO: 50), tested as Acrylodan and Badan conjugates (conjugate)
chain: MVEEPVDNKPGTDTSAEDTIKVGILHSLSGTMAISEVSLKDAELMAIEEINQAGGLLGKKIEPVIEDGASDWPTFAEKAKKLLQNDKVATVFGCWCSASRKAVLPVFEENNGLLWYPVQYEGMESSPNIFYTGAAPNQQIVPAVEWLLENKGKRFFLLGSDYVFPRTANKIIKAQLSAIGGELIAEEYTPLGHTDYSTIVNKIKTAKPDVVFNTLNGDSNVAFFKQLKDAGITSEDITVCSVSVAEEEIRGIGAENIKGHLVSWNYYQTTDTPENKEFVEKYKSKYGSDRVTDDPIEAAYIAVHLWAEAVKKAGSFEVEKVKEAAKGLEFKAPEGLVKIEGENQHLWKPVRIGEVQEDGLIKEIWSTSEAVRPDPYLKTYDWAKGLSDGGSHHHHHH
modifications: Acrylodan or Badan conjugate; ctUBP6_96C (96C substitution mutant with signal peptide replaced with M and a GGSHHHHHH at C-terminus)
B2: ctUBP6 F164C: ctUBP6 164C cysteine mutant (SEQ ID NO: 53), tested as Acrylodan and Badan conjugates (conjugate)
chain: B1 chain with C96T, F164C
modifications: Acrylodan or Badan conjugate; ctUBP6_164C (164C substitution mutant with signal peptide replaced with M and a GGSHHHHHH at C-terminus)
B3: ctUBP6 A98C: ctUBP6 98C cysteine mutant (SEQ ID NO: 52), tested as Acrylodan and Badan conjugates (conjugate)
chain: B1 chain with C96T, A98C
modifications: Acrylodan or Badan conjugate; ctUBP6_98C (98C substitution mutant with signal peptide replaced with M and a GGSHHHHHH at C-terminus)
B4: ctUBP6 L191C: ctUBP6 191C cysteine mutant (SEQ ID NO: 54), tested as Acrylodan and Badan conjugates (conjugate)
chain: B1 chain with C96T, L191C
modifications: Acrylodan or Badan conjugate; ctUBP6_191C (191C substitution mutant with signal peptide replaced with M and a GGSHHHHHH at C-terminus)
B5: ctUBP6 S97C: ctUBP6 97C cysteine mutant (SEQ ID NO: 51), tested as Acrylodan and Badan conjugates (conjugate)
chain: B1 chain with C96T, S97C
modifications: Acrylodan or Badan conjugate; ctUBP6_97C (97C substitution mutant with signal peptide replaced with M and a GGSHHHHHH at C-terminus)

How the values were obtained:
Format in all cases: binding
[1] = Temperature- and urea-dependent fluorescence landscapes of fluorescent conjugates (Roche LightCycler); parameters: key: y, yes; n, no; settings: Acrylodan conjugate; fluorescent response to urea
How it was run: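 Acrylodan or Badan was attached to single-cysteine csUBP7 mutants and fluorescence was recorded over 0–4.8 M urea in 20 mM KCl, 20 mM MOPS (pH 7.4), with temperature stepped by 1K. Urea Kd came from ratiometric single-site fits, and Kd values across temperatures were fit to the Gibbs-Helmholtz equation.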

[2] = Urea titration of emission intensity spectra (Nanodrop3300) with ratiometric analysis, singly labeled conjugates
From the text: (§1) Determination of emission intensity spectra.
(§2) Ratiometric analysis of urea binding. […] 2
(§3) For a single urea-binding site, the fractional saturation is given by
(§4) [formula] where [L] is the ligand (urea) concentration and Kd the dissociation constant, ^trueKd for ytrue.
(§5) [formula] where ^appIλ2 and ^satIλ2 are the emission intensities of the monochromatic signal at wavelength λ2 of the ligand-free and ligand-bound protein, respectively.

[3] = as above; parameters: key: m, monochromatic; d, dichromatic (i.e. spectral shape change); settings: urea response
From the text: as §1, §2, §3, §4, §5

[4] = as above; parameters: key: m, monochromatic; d, dichromatic (i.e. spectral shape changes); 0, no change; settings: urea response
From the text: as §1, §2, §3, §4, §5

[5] = ctUBP6 Acrylodan conjugate, urea, nb = no binding, read-out: ^appKd
[6] = ctUBP6 Badan conjugate, urea, ^d = noisy data and or bad fit, read-out: ^appKd
[7] = ctUBP6 Badan conjugate, urea, ^d = noisy data and or bad fit, read-out: ^trueKd
[8] = ctUBP6 Acrylodan conjugate, urea, nb = no binding, read-out: ^trueKd
[9] = ctUBP6 Acrylodan conjugate, urea, nb = no binding

Row | Molecule | Response [1] | Kd [2, 5] | Kd [2, 6] | Kd [2, 7] | Shape ([3]; ctUBP6 Acrylodan conjugate) | Shape ([3]; ctUBP6 Badan conjugate) | Kd [2, 8] | ^appKd [2, 9] | ^trueKd [2, 9] | Shape ([4]; ctUBP6 Acrylodan conjugate) | Shape ([4]; ctUBP6 Badan conjugate) | Shape ([2]; ctUBP6 Badan conjugate, urea response)
1 | B1 | n | 0.52 mM | 0.62 mM | 0.5 mM | d | d |  |  |  |  |  | 
2 | B2 | y | 23 mM | 9.4 mM | 11 mM | d | d | 22 mM |  |  |  |  | 
3 | B3 | y |  |  |  |  |  |  | nb | nb | m | m | 
4 | B4 | y | 0.15 mM | 0.31 mM | 0.34 mM |  |  | 0.11 mM |  |  | m | m | 
5 | B5 | n | 79 mM | 69 mM | 95 mM |  |  | 84 mM |  |  | m |  | m/d
